This is an account of results in the PETadex activity labels (doi:10.1074/jbc.m303867200).

Settings in all cases: pH 8; 37 °C
Substrate in one data set: p-NP-C12
Substrate in a further data set: p-NP-C2
Substrate in another data set: p-NP-C3
Substrate in another data set: p-NP-C4
Substrate in a further data set: p-NP-C6

B1: unnamed (protein)
chain: MNNIWWQTKGQGNVHLVLLHGWGLNAEVWRCIDEELSSHFTLHLVDLPGFGRSRGFGALSLADMAEAVLQQAPDKAIWLGWSLGGLVASQIALTHPERVQALVTVASSPCFSARDEWPGIKPDVLAGFQQQLSDDFQRTVERFLALQTMGTETARQDARALKKTVLALPMPEVDVLNGGLEILKTVDLRQPLQNVSMPFLRLYGYLDGLVPRKVVPMLDKLWPHSESYIFAKAAHAPFISHPAEFCHLLVALKQRV
One may read the Km as the concentration of substrate that gives half-maximal velocity. A word on the kcat: it is the number of substrate molecules converted per active site and unit of time at saturation. One may read the kcat/Km as the second-order rate constant that governs catalysis at low substrate concentration. In the case of B1, the Michaelis constant (Km) in the data set with p-NP-C12 turned out to be 600 µM; with p-NP-C2, 290 µM; with p-NP-C3, 350 µM; with p-NP-C4 it was 330 µM; with p-NP-C6 it was 250 µM. Besides, the kcat was determined as 1.5 s⁻¹ with p-NP-C12; 18.5 s⁻¹ with p-NP-C2; 13.1 s⁻¹ with p-NP-C3; 6.1 s⁻¹ with p-NP-C4; 4 s⁻¹ with p-NP-C6. Moreover, the kcat/Km with p-NP-C12 amounted to 2500 M⁻¹ s⁻¹; with p-NP-C2, 63800 M⁻¹ s⁻¹; in the data set with p-NP-C3, 37400 M⁻¹ s⁻¹; with p-NP-C4 it was 18500 M⁻¹ s⁻¹; in the data set with p-NP-C6 it was 16000 M⁻¹ s⁻¹.
